Measured values from article PMC6652776.

What was measured:
[1] = target: PE-PilA fusion protein (version used in solution and ELISA experiments) (nontypeable Haemophilus influenzae strain 772 | nontypeable Haemophilus influenzae strain 86-028NP); test: AUC; sedimentation velocity, 25,000 rpm, AN-60Ti rotor, 15°C, absorbance at 280 nm, c(S) model in Sedfit
[2] = target: protein E (PE), recombinant, isolated (nontypeable Haemophilus influenzae strain 772); test: as above

| Substance | stoichiometry N [1] | stoichiometry N [2] |
| --- | --- | --- |
| PE-PilA fusion protein (version used in solution and ELISA experiments) | 2 |  |
| protein E (PE), recombinant, isolated (domain or fragment) |  | 2 |
